These results are taken from article PMC5835413 (Journal of structural biology, 2017).

B1: Non-tagged mutant (E40D/V43S/A56G) RhoA bound to GTPγS (natural protein)
chain: not shown
B2: PH domain of AKAP-Lbc (domain or fragment, UniProt Q12802 2192-2333, looked up)
chain: VASYEKKVRLNEIYTKTDSKSIMRMKSGQMFAKEDLKRKKLVRDGSVFLKNAAGRLKEVQAVLLTDILVFLQEKDQKYIFASLDQKSTVISLKKLIVREVAHEEKGLFLISMGMTDPEMVEVHASSKEERNSWIQIIQDTIN
B3: Fluorescent p190-PH: CFP fused to the N-terminus of the p190 PH domain (domain or fragment)
chain: EKNQKWLEILNKIENKTYTKLKNGHVFRKQALMSEERTLLYDGLVYWKTATGRFKDILALLLTDVLLFLQEKDQKYIFAAVDQKPSVISLQKLIAREVANEERGMFLISASSAGPEMYEIHTNSKEERNNWMRRIQQAVESCPEEK
B4: PH domain of human p190RhoGEF (residues 1049-1194) with C-terminal His6 (domain or fragment, UniProt Q8N1W1 1049-1194, looked up)
chain: B3 chain
B5: PH domain of p114RhoGEF (domain or fragment, UniProt Q6P9R4 723-825, looked up)
chain: QLHLEGALCWKSTSGRLKDVLAVLLTDVLLLLQEKDQKYVFASVDSKPPVISLQKLIVREVANEEKAMFLISASMQGPEMYEMYTSSKEDRNIWMAHIRRAVE
B6: PH domain of human PDZRhoGEF (residues 927-1085) with C-terminal His6 (domain or fragment, UniProt O15085 927-1085, looked up)
chain: TENRHRLEGYQKRLDATALERASNPLAAEFKSLDLTTRKMIHEGPLTWRISKDKTLDLHVLLLEDLLVLLQKQDEKLLLKCHSKTAVGSSDSKQTFSPVLKLNAVLIRSVATDKRAFFIICTSKLGPPQIYELVALTSSDKNTWMELLEEAVRNATRHP

Experiment [1] concerns the target B3. The experiment can be described thus: FRET or BRET. Background: Bioluminescence resonance energy transfer reports proximity on the nanometre scale.
Experiment [2] addresses Non-tagged RhoA bound to GTPγS (human, UniProt P61586 1-193). The experiment in a line: ITC. In general terms: In ITC the heat of successive injections is recorded.
Experiment [3] concerns the target Non-tagged Rac1 bound to GTPγS (human, UniProt P63000 1-192). The experiment can be described thus: FRET or BRET.
The next experiment deals with GST-Rac2 (human, UniProt P15153 1-192). The experiment can be described thus: pull-down.
The next experiment has as its target GST-Rac3 (human, UniProt P60763 1-192). The experiment can be described thus: pull-down.
A further experiment addresses GST-RhoB (human, UniProt P62745 1-196). The experiment can be described thus: pull-down.
A further experiment deals with GST-RhoC (human, UniProt P08134 1-193). The experiment can be described thus: pull-down.
Sequence of GST-RhoC (P08134 whole entry): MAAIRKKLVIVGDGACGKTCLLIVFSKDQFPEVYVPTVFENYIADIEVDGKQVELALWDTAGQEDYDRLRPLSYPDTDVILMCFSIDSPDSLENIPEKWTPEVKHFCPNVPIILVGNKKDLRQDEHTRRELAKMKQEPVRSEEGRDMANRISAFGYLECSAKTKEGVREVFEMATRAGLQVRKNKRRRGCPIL

Sequence of Non-tagged RhoA bound to GTPγS (P61586 whole entry): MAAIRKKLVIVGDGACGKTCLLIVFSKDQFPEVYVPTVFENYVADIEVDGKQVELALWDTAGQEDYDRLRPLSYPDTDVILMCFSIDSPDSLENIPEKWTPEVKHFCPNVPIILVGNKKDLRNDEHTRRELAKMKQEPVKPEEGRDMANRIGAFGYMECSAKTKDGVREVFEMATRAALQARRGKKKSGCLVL
Sequence of GST-RhoB (P62745 whole entry): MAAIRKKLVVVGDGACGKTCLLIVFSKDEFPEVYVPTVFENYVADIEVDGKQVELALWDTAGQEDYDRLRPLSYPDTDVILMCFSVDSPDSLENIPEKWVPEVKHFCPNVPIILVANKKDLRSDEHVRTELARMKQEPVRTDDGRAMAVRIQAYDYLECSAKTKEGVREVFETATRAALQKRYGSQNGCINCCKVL

With B1, the “fold reduction in affinity against wild-type RhoA” value in experiment [1] was determined as 2 fold.

On to B2, for which the dissociation constant Kd – broadly, the equilibrium constant for the complex coming apart – in experiment [2] was 3.1 µM. In other words, the single-digit micromolar range.

Consider B3, for which the Kd in experiment [3] is about 20 µM.

The molecule B4 registered a Kd in experiment [2] of about 2 µM. The binding result with GST-Rac2, with GST-Rac3, with GST-RhoB and with GST-RhoC was “binds” each time.

With B5, in experiment [2], the Kd came to 13 µM.

B6 returned a Kd in experiment [2] of 1.2 µM.
